# Test results as given in the DeepSol protein solubility set.
# Assay: soluble on expression in E. coli; label from the status in PepcDB or PDB records
row,Sequence,soluble on expression in E. coli
1,MGSDKIHHHHHHMELVVDAHELKEWVYLLDKLVGTTEPTARFLSFFYRDGLWVSASDNCAKVEIFLGEIPRFEGSRIVSLDLVKYFLSDVKVSDVRITVLQERLVLKAGNEVLDVRCKTGEIPPGDGEEEFLCTLTKREFEGALNFASSNLDEGEFLILLFEEKDVLMFGASAGIMTLAQISTIPKKPFSTKIPYVTVRHIFKAFQRLDVQTLDFYEKSGKLVVKYPHFVMEVCGDEVSEEEIKKLKSLLEEKTAERIEARRQVLAKLVRKAAVLSRGDYATISRRGENLKVQVKRKNLSYTAELFVESGRDFVVVFPSKKLRSALARMDTERIFLEITERFLKISNFSGTRVIYLELEEFF,not soluble
2,MGSDKIHHHHHHMEMEFNENNIDLETIIRDEVNKYLSRDIGDLPATQQAPLELREKYEKMEVPNKGRDIYEVLKDLNNEVLNYLYRPNHPRSFSFIPGPASRLSWLGDILTTANNIHASNFANATLPINIERNLINYLVGKIGYEIKPAGGVFVSGGSMANLTAIVAARDAQVEMEDIKKATVYLTSQTHHSVGKALHVAGFLKNNIRRIEYNDDFTMNTDSLKAAIDKDIEEGYKPAMVIATAGTTNTGSVDDFTTLGDICDHYNLWLHVDGAYGLSHILSDKAQHLFKGIERSDSASWDAHKLLFQTYSCAMVIVKEKNHLLQSFGEDAEYLDDIASDDDVIDPEMLGIELTRPARALKLWITLQVIGEDEIIERIKYGEGLAEYAEEYVSSLDNWRIISHANLSIVNFRYENSDLTEAQNNQLNSMAAQKIADSGYAIAYTTVLNNQRVIRLCTTNPLTTHDDIRETINRLDQYIGDYDMKDA,not soluble
3,MGSDKIHHHHHHMENDILKYQKAYNTIVKLLKSNEKVLATMVFGSIVSGDLWEESDIDLFVIIDEEMANIKNIYMEQNDVPIHIKLMGKNKFVLLNENDIKGGFFHRIFASSKLVFSKDKDITEKYDSGRYYPDIDREKWNMVYISDLLKSLGLCKKYLNNKRIYTAYYFSVKCVEEFSKLYINHSGYMVNKDDVNMLTNINGDFKNYIDNLFFSKDNVEEAIKEVVDKIEEFINKNIKSITAILIDYMRDKDKSLSAEDINTDPVFNDFSINFEEILSKLWEFNIIKKGTRKYSIKDGKALCMENVYYL,not soluble
4,MGSDKIHHHHHHMENFVFHNPTKIVFGRGTIPKIGEEIKNAGIRKVLFLYGGGSIKKNGVYDQVVDSLKKHGIEWVEVSGVKPNPVLSKVHEAVEVAKKEKVEAVLGVGGGSVVDSAKAVAAGALYEGDIWDAFIGKYQIEKALPIFDVLTISATGTEMNGNAVITNEKTKEKYGVSSKALYPKVSIIDPSVQFTLPKEQTVYGAVDAISHILEYYFDGSSPEISNEIAEGTIRTIMKMTERLIEKPDDYEARANLAWSATIALNGTMAVGRRGGEWACHRIEHSLSALYDIAHGAGLAIVFPAWMKYVYRKNPAQFERFAKKIFGFEGEGEELILKGIEAFKNWLKKVGAPVSLKDAGIPEEDIDKIVDNVMLLVEKNLKPKGASLGRIMVLEREDVREILKLAAK,soluble
5,MGSDKIHHHHHHMENIPFLRASTVPVIEYLDELKEIDASHIYTNYGPINQRFEQTIMSGFFQNRGAVTTVANATLGLMAAIQLKKRKKGKYALMPSFTFPATPLAAIWCGLEPYFIDISIDDWYMDKTVLWDKIEELKEEVAIVVPYATFGSWMNLEEYEELEKKGVPVVVDAAPGFGLMNGGMHYGQDFSGMIIYSFHATKPFGIGEGGLIYSKNEEDIQRIKRMGNFGFDTNRECTMMGFNCKMSEYAAAIGIATMKKWDDKLKERTRISEWYKQLLQSNGLMKKGWQLQKTEAVIQQFMPILCPEEVRNKQVIEDLKKQKIEARLYFSPSCHQQVLFRNYKSTDLTRTNKIAKRIVSLPLWEGMTKEIVEQIVICLGQKVVSADE,not soluble
6,MGSDKIHHHHHHMENRIVKFKSKESAGLNLHAIPGHFATSHSHINYYVDVTSIKTRVSEAKEAAKALYTKVPHHSYIDTIVCMDGTEMIGAFLSQEIERNGLMSVNKHETIYVVSPEINNGQMLFRDNNKGAIDGKHVVLLLATTTTGETIRRAMECINYYGGMVTCIASIFSTIDEVNGVKIDKLFDDDDVVNYQTYPVTECPFCKKGLPIEAMVNGFGYSKL,not soluble
7,MGSDKIHHHHHHMENSQQHTDFRQRLELLIGSEKPYAWAARNGLNKGSFTNMWYKGGVPRIGTAQKIAANSGCRVEWLLYGEGPMQDECAQAHDAPMPAGLPALSPLADADEHEVPAGVQEEFCFIPRYNLKASAGFGTSAAGEQPMFYMAFRRYWVKNYLNASPRNLVVISVKGDSMSGVLEDRDTILVNTAERHPGEGLFVIRIGDDIFVKQLQRLPGGAVQVKSANPLYETFTVDLSRASGEFEVIGRVVWFGRQIA,not soluble
